Laboratory results: a protein production outcome set (Wang et al. 2014)

Test: label from the status in PepcDB records

Row | Sequence | protein production
1 | MQNMFDGVQLFVEVVEAGGFAKAGKRLSLTRSTIGKAIARLEMRLGVQLFQRTTRVQSLTEDGQQYYERCLRAIKELRAGEAMLEQGRREVAGRLHVSLPVLFGRQCVAPILRTYAREHPQLELELNFSDHHVDLIADGFDLAVRNGPLGNGTTLRARRLGNQRKILCASPTYLAARGKPHTLADLADHDLLTYCRNDRNMAWTLPDATGALVDIPITSRLRCNDLEVIADTAVDGMGVAWLPYWLLMERMQRGELIGIWGDRPSAVIECHVVWPAAQHVPLRSRLAINLLAAELPKYLEA | failed
2 | MADRPHPYDRAPGGSSGSHDRTGVFRRNPDGGLPDRIDSLYRPEPAARSASDAAATRRLSRTSGTPPRRPTPRSRGRDSGGWERRERERRARRRKKAAVLVLVLLLLLPTVGYLWANSRLNRVAALVPYEGRPDDQPGTTYLIVGSDSREGLSDEDMEALRTGKAEGKRTDTIMVLYVPTEGRPAIISVPRDSYVEIPGIGANKINAAYAEALGGGPATLVRTFEQASGVRIDHYVEIGFAGFVDIVDAVGGVELCPEEAMEDPKAGLDIEAGCQVMDGPTALGYVRTRATPRADLDRIQRQREFFSALIQQATAPSTLFNPFRSIPLVLSGTSTFSVDEGDSLMDLAWLALAMRDSPATTAVPVGSTPTLDVGSVVLWDEARAEEMFAAMREGRPIPESAMQD | failed
3 | MNKRKMIGAHSALALLALAVSQVHAADPTVQQGREDRAEKAAQKTLAKMTMEEKLAYIGGTGGWDVKPLTNYGVPQIHGADGGVGVRYTSEGNDQGVVYPSGPNLAATFNPRRAIDLGRALGYDTATGGYQFITGPGVNLYRMPYGGRAFEYLSGEDPFLGASLAPGVINGIQSRGVWANAKHYAANDQESNRFNLDQKMPERVLREMSLPAFESSSKNGNVAMMMCAFQKVNGDFACESEHLIAQILKKEWGYKGFVQSDYNAVVHGFEAARAGTDLDMMGYQMNSSVLKPHLDAGDLSAATIDDKVRRILKQIYLYKFDSKAPLTTHNMNSSTSNKVALNAAREGIVLLKNQGDLLPLDKQKVKKIAVVGTLAKYAPPTGFGSANVMASHYVSELSGLQQMAPNAKVEFIDGLSLDPSTSAWNTTDAAGNSVQGMKVEYFSNTNWSGDAAVTRTEQHVDLDWANDKNLPFESNTSTSDPYTTKGSTAGELNGDTSSTSIRYTGKITPTQSGEQVFKVRADGAVRLWVNGKKIIDNGDGKPLPGNSIPPTIPEFAKINLEAGQSYDVKLEYSRRAGYLSTMGGLVGVQLSSASLNAPQDLSGYDAVVVAVGNSNEYEGEGFDHSFDLPEFQNELIQNIAKVNPNTVVTMYGGTGLKMSDWIEQVPVALHAFYPGQNGGQALAEILFGKINPSGKLPISIERNIEDNPAYASFPKFDNQNTLAEMDYKDDLMLGYRGYEKKGIKPLYPFGYGLSYTTFGYSNIKVTPGVAVGNTPIKVSFDLTNTGKVGGSEVAQLYVGQQNPKVERPIKELKGYKKVFLKPGESKRVTIELNDRSLAYFDVKTNQWVVDADTFNLSLGGSSQDIRLNAKLVNSFRQELSTTTSNPLPRSALNSVLVEKPPVKTGGVFQQTVE | failed
4 | MANYEFSQVSGDRPGCRLSRKAQIGLGVGLLVLIALVVGIVVILLRPRSLLVWTGEPTTKHFSDIFLGRCLIYTQILRPEMRDQNCQEILSTFKGAFVSKNPCDITREDYAPLVKLVTQTIPCDKTLFWSKSKHLAHQYTWIQGKMFTLEDTLLGYIADDLRWCGDPSTSDMNYVSCPHWSENCPNNPITMFWKVISQKFAEDACGVVQVMLDGSLREPFYKDSTFGSVEVFSLDPNKVHKLQAWVMHDIEGASSNACSSSSLNELKMIVQKRNMIFACVDNYRPARFLQCVKNPEHPSCRLNT | not failed
5 | MSASVKESLQLQLLEMEMLFSMFPNQGEVKLEDVNALTNIKRYLEGTREALPPKIEFVITLQIEEPKVKIDLQVTMPHSYPYLALQLFGRSSELDRHQQLLLNKGLTSYIGTFDPGELCVCAAIQWLQDNSASYFLNRKLV | not failed
6 | DDDDDNGGSSVMNITGIYLEDAKSNVPDRLVDFARLGQLIRIEGEGFNGLKKVYINGYNCYFNPVFVSNKSFLVSVNSKVPTTEADENVRNTIRLVKDGGEYVYDFQIRAAAPSITKISNCMPNVGEPIIVYGSGLTEIAKVVFPGNVVVTEGIISDLDGEYFMVDMPAGVSEEGGSIFVEGSNGGAYSPAYFNYKKGLLLNFDGVGAQGAWGDSESMIQTTELESASIGEGNVSQGAYCRLPLERQLPVAAAKNRCAEVWTAGNGTDPDWLTLGVPAETPVAECAIQFEIYVPEPWSESGFLKICGQNGFNGGEWERDCYNYVPWLVDGKIVPFQTTGWQTVTVPFSEFYKSKASSGAWTTFADVTATRASASYANFGFYFENSDITLDKITGASSDKETEFLSKATSVKIYIDNWRVVPLTKPEYTDFPDEEEDAE | not failed
